Measured values from a protein production outcome set (Wang et al. 2014).

Test: label from the status in PepcDB records

Sequence	protein production
MILVTGFEPFGSLEHNPSQALLDLLPSEVDGKPLRKAVLPVDAEALGEALEDLHREGPKAVLHLGLAEDRPVLTLERLAVNLLDFPRPDNRGRVLEDLPIVPGGPLALPARFPVKPVLARWREAGIPGRPSLSAGSYLCNQAFYLSLYRLPEEVPVGFLHLPPDETLALKRPRPYVPLEVQARAVRLALEHL	not failed
MIMFNYQQTSQSCVKCGKCIPSCTIYNIHPDEVTSPRGFIDLLGAYQRGELELDKNAKDIFEKCFLCTNCTYVCPNLLPTDQVIENVRAEIAQKFGIAWFKRAYFFLLRNRWLEHHHHHH	failed
MIMMESGKLDLDRTKEGVKKYWDYGSKFYDTAPGLGGNEESQIWKKLLSSSIGPDLKNILDVGSGTGIIAMYLAELGYGVTAVDFSEGMMDIARKKALEKGAKIRFMEGDIENLSFEDETFDCVTARYVLWTLPHPEKALKEWVRVVKPGGRIVIIDGKWVTRGLLPRISAMNYHIYRFIKYGKNPFTYDYRKEVSVGLPNPHGVEKKQIMEYVSKAGLTDIVVTDLKIIRDIQRKKLPWYLKYANDHPIFMVRGTVAKKG	failed
MIMMKRYKKILLTGVLSALSCSFVHAQELYKNENAPVHERVMDLISRLTVEEKISLLRATSPGIPRLGIDKYYHGNEALHGVVRPGRFTVFPQAIGLAATWNPELQKRVATVISDEARARWNELDQGREQKEQFSDVLTFWSPTVNMARDPRWGRTPETYGEDPFLSGIMGTAFVNGLQGDDPHYLKIVSTPKHFAANNEEHNRFVCNPQISEKQLREYYFPAFEMCVKEGKAASIMSAYNALNDVPCTLNPWLLQKVLRQDWGFQGYVVSDCGGPALLVNAHKYVKTKEAAATLSIKAGLDLECGDDVYDGPLLNAYKQYMVSDADIDSAAYHVLTARMKLGLFDSGERNPYTKISPSVIGSKEHQQIALDAARQCVVLLKNQKNRLPLNADKLKSIAVVGINAGKCEFGDYSGAPVVEPVSILQGIRNRVGDRVKVVYAPWKSAADGLELIQGENFPEGLQAEYFDNTRLEGTPRVRKESWINFEPANQAPDPFLPKSPLSVRWTGKLKPTVSGRYTFSFTSDDGCRLSINNQMLIDAWQAHAVSTDSASIYLEAGKEYQLKAEYYDNRDYAIAKLQWKVPQIGKATRLDLYGEAGKAVRECETVVAVMGINKSIEREGQDRYDIQLPADQREFLQEIYKVNPNIIVVLVAGSSLAINWMDEHIPAIVNAWYPGEQGGTAVAEVLFGDYNPAGRLPLTYYKSLDELPPFDDYDITKGRTYKYFKGDVLYPFGYGLSYSSFTYSDLQVKDGGGEVTVSFRLKNTGKRNGDEVAQVYVRIPETGGIVPLKELKGFRRVPLKSGESRRVEIKLDKEQLRYWDVEKGQFVVPKGAFDVMVGASSKDIRLQTVIDL	failed
MIMRQLAHFKFFDTLSKKMVAGFIILILIGTVLLSLPWATPANVHTSLIDVLFTSASATCITGLTVVNTAAHWTTFGQLVILVLSEVGALGYMTFAVLLFNIMRRQIGLSTQLMVKASLNLERLSDTKSVMKYVVGLSLLFQLGGLGLLAIDFVPRFGWRHGLYVSLYHAVMSFCNAGFDVFGDSLQGFRNDPYVLTVTMILIIAGGLGFLVWRDVLLYHTRKRLTLNSKLTLLTTFSLFVIGFVLLLITERDLELLPTGMSWVNRTINTLFLSVTPRTAGLITMPTQGLQAGSLLVIMILMFVGGTPGSTAGGIKTTTFGVLMFQSIAQLRGRRDVEFSHRRFSQENINRALMLIFLASIVLTVATLILTQTEKIPKGFGLEYVLFEVLSAFGTVGLSLGLTPNLTLIGKIVIMMLMFIGRVGIFTSLYALSRRQARVNLIRYPAENILIG	failed
MIMTVLRQQPRAAGLVLGLIAANFLAWCWALQAFGDSGALMAASLLAWGYGLRHAVDADHIAAIDNVTRKMMQQGRRPFAVGAWFSLGHSSIVVLASAAIAATATAFSTQMSWLHDTGSVIGTAVSALFLLAMAFINLVILRSVWRSFRAWKRGEPVSDEIVSGGGVMSWLFGKTFRLISRSWQMYLVGFLFGLGFDTATEIGVLGISAAGASSGISVWSIMVFPALFASGMALVDTLDNVLMVGAYGWAFSKPQRKLYYNMTITGTSVVVALFIGGLEALGLLMDKFALSGGIWRWVGALNDNLGDAGFVVVGLFVACWALSVLNYRWRGYDNLAR	failed
MINDIKILGVGGSPRKNGNTDVLLDSFLKGAESAGVETKKVLLRDYSIEPCIGCERCRKTGTCTRFHDGMSLLYPEIEAAKGLTLGSPTYNYNVTALMKAFIDRLYPYYNFTNVRPRRYSSKLAGQGRKAIVFSVCEQLEIEEMGFTLGALGMPLEALGYEIVEKFPVTGYFDRGAVSRDEELLRKTFEAGKKMAEALHLEHHHHHH	failed
MINFEATELRLGLPGGNHGGEMAGKNNGKRGFSETVDLKLNLSSTAMDSVSKVDLENMKEKVVKPPAKAQVVGWPPVRSFRKNVMSGQKPTTGDATEGNDKTSGSSGATSSASACATVAYVKVSMDGAPYLRKIDLKLYKTYQDLSNALSKMFSSFTIGNYGPQGMKDFMNESKLIDLLNGSDYVPTYEDKDGDWMLVGDVPWEMFVDSCKRIRIMKGSEAIGLAPRALEKCKNRS	failed
MINGNTSGLKEYILENLDKLYSTKIEKGKIINQEIVDYISEISNKINREINVAIDRNGNIIDISIGDSSTVNLPVIPVYDKKLSGVRIIHTHPSGNPHLSSVDISALIKLKLDCIVSIGVSEEGVTGYEVAICSIVNDELTYDRTLLENLDDFDYLEEIKEVEENLRKRNITEDDKEYALLIGIDKEEYLDELEELASACDVKVVGRFFQKRSKPDPLFLIGSGKIQELALTRQVRKVNLLIFDEELSGLQLKMIEEVTGCKVIDRTTLILEIFARRARTREAKLQVELAQLKYRSNRLIGFGVTMSRLGGGVGTKGPGEKKLEIDRRVIKKTIAYLNNELENIKKIRNTQRSKREDSGMPRVSLVGYTNVGKSTLRNVLVDMYQNDKTLKKEEVLSQDMLFATLDTTTRTIELKDKRIVSLTDTVGFIQKLPHDLVESFKSTLEEVIFSDLIIHVADISSKNVIEQIDAVEDVLEELNCLDKTKILLLNKIDNVTKDNSFPLMEKKIEEIKAKYSNYQILIISAKNRFNIDELMELIKKNLIVKTYNCKLLIPYVNTEIAARVHRNTIVKSESFVDEGIILEVVMNEKEYNKFKDFIFN	failed
MINIRSFRDLLRLFFIFKREVKITVLVTFIIIVLGAFLLPNRFESTALLLVKPGRDTSTLPIEIADRQAVVIPSAQRDPIIDEERILGGEPIARKVAEKYLDDLSRQPQPSGALATLKNAVKGAVEGIVDLLRGALQLVGLVEKQTPVERLTERMLKSFSVTHAAGSSVMEVSFTWNDPKVAQTVVKSWIEQYQQERAQTLGRKSLYAFYETESGATNQRILGYKKQIADYLNQLGAVSIEERLNDISRNLNNLKGEHLNTTRAVASTRSGLETIQKQLNSMKKEISIGRQMSLNPDRQDLQQRINAKQIERQEMLRTFKEGAPPVRAMDAAIANLQALLKSESGTVQRSENLAPNPVYTRLQNSFADQQASLSRLQTQAAQQETQLLKLEQERRQALAVEPELARLQRELSAAEKSFALYSDSTEKARIDRELDQSQISNIAVIEEATFKPSRVFPKSLSMLLAAIPLSLAVGLLALYFFYLLDQRIHDGDQIEERFGVKVWTSLQDLDSHLPQRNSAFTASLYRLYGILPLKQVALQGLVIGLTSARRGEGVSFVTAHLRDLLQERGHVVRVNGAPNAVPGEIVLLEASGFFSNQEAFVSLREADLIALIVEAETTTVPVLQNALSILTTAFKRVDGIIINRRRFGIPENVLNFLARIRSPH	failed
MINLELFKEFLLNLIKDYGYFGIFLVGFSEPIFQPFPTEIFIIAGILLGLDWKLVWLISTIACNFGAVVTYYLAKKYGEKLMLKLFDEEKIKKGSHYLKKWGILGVIIASFTPIPFEVICWVCGSFEMPFERYMIAVFLSRLIRHGMVILPFVLKDHIHF	failed
MINMTRKLYYEDAYLKEAKGRVLEIRDNAILLDQTIFYPTGGGQPHDRGTINGVEVLDVYKDEEGNVWHVVKEPEKFKVGDEVELKIDWDYRYKLMRIHTGLHLLEHVLNEVLGEGNWQLVGSGMSVEKGRYDIAYPENLNKYKEQIISLFNKYVDEGGEVKIWWEGDRRYTQIRDFEVIPCGGTHVKDIKEIGHIKKLKRSSIGRGKQRLEMWLE	not failed
MIPFDYIVEKTVSTGVLVDVIGALLEVGNLTEDYRGLKLPFKIMDQYKEVLQCEAHNDQALEFQRFFQRLTGPQNVIALVSWRLSGIYKLKTLSNDPISKVIANPDIPEVEEIRVVVY	failed
MIPGEILAVLVVVIPGVVNITYRLGIKKATIVGASADLVVAGLMYFLRPQTGFFYIQDSTMLFIIMVLSVYLLSAIYSTRYLKGIEVMGIREPTYYLLLNLFTASMLFSLEVNNYGLMWVGIEATTISSALLLITEKSETSLEATWRYIIIVSAGVTFAFISIILIYYTLGTLSVSTAIGSHVHSRIMVLAVSLALIGFGTKVGVFPVHTWLPDAHSEAPSPVSAMFSGVLLPTALYVLYRVYEIEPVRGLYVWFAVVSIVAASIFMGYQARYKRMFAYSTMENMNLALLGIAVGGSLGFTGALLLLLSHSFGKAGAFYSSGNILRFTGKKEIAEINGMHTSMPYTSTSLLMSSLAVTGAPPFGTFFGEFLILSGVLSLHMYVQFIIVIVFLAAAFISMNYNVTGMIFNGNCPNIEKDRLMPALSIFSSVIPLFIGIFFLVVYNEIL	failed
MIQLRPCPKSYTRDQDKATTPAETVRRVRERLASLDISILAETRRVDVGRLGIPVFLSVCGADARAVMPTRKQMGKGASLEQAQASALMELMERYSFFTFWRDMPGMVEATWSEARNRFGDALIPVDEILHSVHDTLSPDDAVRALDLWRWKFFPATDITHGREVWLPLDWFKKLGEFNGSSAGNTEEESILQGSCELVERHVCCLIDRTQPELPTIDPASLDDPVLLELAAAFERNGIRLVLKDFSMGMPVPTVGAIAWDPATFPERSEIVYTAGTSSSPVKAAIRAVTEVAQLAGDFCTGACYEASGLSKYESLDDIAWLVAGPVVALDTLPSVETDDIRDELAALCDGLAATGHTLYSVSTMNPDVGVNTHYNIVPGFHFRERDRNASLGLFIGRILSEEADAGTALAGLSVLEELYPGAHFLPFFKGMLALRAESHHEAISFFEQAEPLQPEADSRGLAAFYGAYVRTLLTDWQGALPGLDRAVTECPEMKEYFNLRGVCHFKLGDYAQAAQNFAQVLHIDKGAVVDLANLGLCHKFMGDTEKAEELLSAALEIDPGLDFARRHLDEMRQP	failed
MIQMSSNDSSEVIRQCLQVLESITSDSSVPRNIRRSVNEIMDILNNESEPLFLRAASSISILEDISNDPNLPLHTRTLIWNLSSQLETIPVDE	failed
MIQTFFDFPVYFKFFIGLFALVNPVGIIPVFISMTSYQTAAARNKTNLTANLSVAIILWISLFLGDTILQLFGISIDSFRIAGGILVVTIAMSMISGKLGEDKQNKQEKSETAVRESIGVVPLALPLMAGPGAISSTIVWGTRYHSISYLFGFFVAIALFALCCWGLFRMAPWLVRVLRQTGINVITRIMGLLLMALGIEFIVTGIKGIFPGLLN	failed
MIRAYKFLLRPTVRQAQALAEMLRDHCSLYNAALQERRDAWRHPSKTTVKYGGQSAQLKDIRAFDPERQGRWSFSSQQATLRRLDKAFAAFFRRVKSGETPGYPRFRGVNWFDTVDFPKDGDGCRWNSTPHDPATRVRLQGVGHVKVNQHRPVAGRVKTVSVKREGRKWFVVLTAEQDQPEPLPATGSAAGIDLGIANFLADSGGGFVPNPRHGRRAADKLQAAQQALARFPRRKAKDRTANHRRAVGKVAQLHGKVRRQRLDHAHKTALGLVRAHDFIAHEDLRIRNMSKAPAPKPDPDKPGTFLPNGAAAKAGLNKSINDAGWGVFLTILHAKAESAGREVIAVDPRDTSRTCPECGHTAKENRPTQEKFHCVACGHHAHADTVAATNVLRAGLVRRNANPA	failed
